Consider 18 molecules from patent US20250129168A1.

The target in assay [1] is recombinant human-Dectin-1 mouse Fc fusion (human) (UniProt Q9BXN2). The assay can be described thus: Octet BLI, delta between the two X values. Background: Biolayer interferometry detects binding as a change in optical thickness at a sensor tip.
Assay [2] shares this target. The assay can be described thus: Octet BLI, response at X.

B1: 2M24A.1.1 hFab (Fab, V domains shown)
VH: QVQLVQSGAEVKKPGASVKVSCKSSGYTFTAYYIHWVRQAPGQGLEWMGWINPNSGDTNYAQKFQGRITMTRDTSISTAYLELSRLRSDDTAVFYCARNSGSYSFGYWGQGTLVTVSS
VL: DIQMTQSPSSVSASVGDRVTITCRASQGISSWLAWYQQKPGKAPKLLIFGASSLQSGVPSRFSGSGSGTDFTLTVSSLQPEDFATYYCQQAASFPFTFGPGTKVDIE
Turning to B1, in assay [1], the delta was determined as 98%. Also, in assay [2], the X = 340 came to 0.305 and the X = 470 was 0.006.

B2: 2M24A.1.13 hFab (Fab, V domains shown)
VH: QVQLVQSGAEVKKPGASVKVSCKSSGYTFTDYYIHWVRQAPGQGLEWMGWINPNSGDTNYAQKFQGRITMTRDTSISTAYLELSRLRSDDTAVFYCARASGSYSFGYWGQGTLVTVSS
VL: DIQMTQSPSSVSASVGDRVTITCRASQGISSWLAWYQQKPGKAPKLLIFGASSLQSGVPSRFSGSGSGTDFTLTVSSLQPEDFATYYCQQAYSFPFTFGPGTKVDIE
For B2, the delta in assay [1] turned out to be 100%. Besides, in assay [2], the X = 340 is 0.028 and the X = 470 turned out to be 0.

B3: 2M24A.1.11 hFab (Fab, V domains shown)
VH: QVQLVQSGAEVKKPGASVKVSCKSSGYTFTAYYIHWVRQAPGQGLEWMGWINPNSGDTNYAQKFQGRITMTRDTSISTAYLELSRLRSDDTAVFYCARNSGSYSFGYWGQGTLVTVSS
VL: DIQMTQSPSSVSASVGDRVTITCRASQGISSWLAWYQQKPGKAPKLLIFGASSLQSGVPSRFSGSGSGTDFTLTVSSLQPEDFATYYCQQAYSFPFTFGPGTKVDIE
Turning to B3, in assay [1], the delta was 16%. For the same molecule, in assay [2], the X = 340 came to 0.499 and the X = 470 came out at 0.418.

B4: 2M24A.1.8 hFab (Fab, V domains shown)
VH: QVQLVQSGAEVKKPGASVKVSCKSSGYTFTDYYIHWVRQAPGQGLEWMGWINPNSGDTNYAQKFQGRITMTRDTSISTAYLELSRLRSDDTAVFYCARASGSYSFGYWGQGTLVTVSS
VL: DIQMTQSPSSVSASVGDRVTITCRASQGISSWLAWYQQKPGKAPKLLIFGASSLQSGVPSRFSGSGSGTDFTLTVSSLQPEDFATYYCQQAFSFPFTFGPGTKVDIE
On to B4, for which the delta in assay [1] was determined as 100%. In addition, in assay [2], the X = 340 came to 0.042 and the X = 470 came out at 0.

B5: 2M24A.1.15 (Fab, V domains shown)
VH: QVQLVQSGAEVKKPGASVKVSCKSSGYTFTDYYIHWVRQAPGQGLEWMGWINPNSGDTNYAQKFQGRITMTRDTSISTAYLELSRLRSDDTAVFYCAANSGSYSFGYWGQGTLVTVSS
VL: DIQMTQSPSSVSASVGDRVTITCRASQGISSWLAWYQQKPGKAPKLLIFGASSLQSGVPSRFSGSGSGTDFTLTVSSLQPEDFATYYCQQAYSFPFTFGPGTKVDIE
Regarding B5, the delta in assay [1] came to 62%. For the same molecule, in assay [2], the X = 290 came out at 0.082 and the X = 350 amounted to 0.0314.

B6: 2M24A.1.16 (Fab, V domains shown)
VH: QVQLVQSGAEVKKPGASVKVSCKSSGYTFTDYYIHWVRQAPGQGLEWMGWINPNSGDTNYAQKFQGRITMTRDTSISTAYLELSRLRSDDTAVFYCARNAGSYSFGYWGQGTLVTVSS
VL: DIQMTQSPSSVSASVGDRVTITCRASQGISSWLAWYQQKPGKAPKLLIFGASSLQSGVPSRFSGSGSGTDFTLTVSSLQPEDFATYYCQQAYSFPFTFGPGTKVDIE
Turning to B6, the delta in assay [1] came out at 5%. Moreover, in assay [2], the X = 290 amounted to 0.12 and the X = 350 worked out at 0.114.

B7: 2M24A.1.14 hFab (Fab, V domains shown)
VH: QVQLVQSGAEVKKPGASVKVSCKSSGYTFTDYYIHWVRQAPGQGLEWMGWINPNSGDTNYAQKFQGRITMTRDTSISTAYLELSRLRSDDTAVFYCARNSGSASFGYWGQGTLVTVSS
VL: DIQMTQSPSSVSASVGDRVTITCRASQGISSWLAWYQQKPGKAPKLLIFGASSLQSGVPSRFSGSGSGTDFTLTVSSLQPEDFATYYCQQAYSFPFTFGPGTKVDIE
Turning to B7, in assay [1], the delta came out at 100%. For the same molecule, in assay [2], the X = 340 is 0.106 and the X = 470 is 0.

B8: 2M24A.1.7 hFab (Fab, V domains shown)
VH: QVQLVQSGAEVKKPGASVKVSCKSSGYTFTDYYIHWVRQAPGQGLEWMGWINPNSGATNYAQKFQGRITMTRDTSISTAYLELSRLRSDDTAVFYCARNSGSYSFGYWGQGTLVTVSS
VL: DIQMTQSPSSVSASVGDRVTITCRASQGISSWLAWYQQKPGKAPKLLIFGASSLQSGVPSRFSGSGSGTDFTLTVSSLQPEDFATYYCQQAFSFPFTFGPGTKVDIE
Consider B8, for which, in assay [1], the delta is 22%. Further, in assay [2], the X = 340 was determined as 0.51 and the X = 470 was found to be 0.398.

B9: 2M24A.1.18 (Fab, V domains shown)
VH: QVQLVQSGAEVKKPGASVKVSCKSSGYTFTDYYIHWVRQAPGQGLEWMGWINPNSGDTNYAQKFQGRITMTRDTSISTAYLELSRLRSDDTAVFYCARNSGAYSFGYWGQGTLVTVSS
VL: DIQMTQSPSSVSASVGDRVTITCRASQGISSWLAWYQQKPGKAPKLLIFGASSLQSGVPSRFSGSGSGTDFTLTVSSLQPEDFATYYCQQAYSFPFTFGPGTKVDIE
On to B9, for which the delta in assay [1] was 9%. In assay [2], the X = 290 is 0.138 and the X = 350 amounted to 0.124.

B10: 2M24A.1.20 (Fab, V domains shown)
VH: QVQLVQSGAEVKKPGASVKVSCKSSGYTFTDYYIHWVRQAPGQGLEWMGWINPNSGDTNYAQKFQGRITMTRDTSISTAYLELSRLRSDDTAVFYCARNSGSYSAGYWGQGTLVTVSS
VL: DIQMTQSPSSVSASVGDRVTITCRASQGISSWLAWYQQKPGKAPKLLIFGASSLQSGVPSRFSGSGSGTDFTLTVSSLQPEDFATYYCQQAYSFPFTFGPGTKVDIE
On to B10, for which the delta in assay [1] came to 78%. Besides, in assay [2], the X = 290 came out at 0.0981 and the X = 350 was 0.0215.

B11: 2M24A.1.2 hFab (Fab, V domains shown)
VH: QVQLVQSGAEVKKPGASVKVSCKSSGYTFTDYYIHWVRQAPGQGLEWMGWINPNSGATNYAQKFQGRITMTRDTSISTAYLELSRLRSDDTAVFYCARNSGSYSFGYWGQGTLVTVSS
VL: DIQMTQSPSSVSASVGDRVTITCRASQGISSWLAWYQQKPGKAPKLLIFGASSLQSGVPSRFSGSGSGTDFTLTVSSLQPEDFATYYCQQAASFPFTFGPGTKVDIE
Turning to B11, in assay [1], the delta was 98%. In assay [2], the X = 340 turned out to be 0.331 and the X = 470 came to 0.006.

B12: 2M24A.1.12 hFab (Fab, V domains shown)
VH: QVQLVQSGAEVKKPGASVKVSCKSSGYTFTDYYIHWVRQAPGQGLEWMGWINPNSGATNYAQKFQGRITMTRDTSISTAYLELSRLRSDDTAVFYCARNSGSYSFGYWGQGTLVTVSS
VL: DIQMTQSPSSVSASVGDRVTITCRASQGISSWLAWYQQKPGKAPKLLIFGASSLQSGVPSRFSGSGSGTDFTLTVSSLQPEDFATYYCQQAYSFPFTFGPGTKVDIE
For the molecule B12, in assay [1], the delta stood at 19%. Also, in assay [2], the X = 340 stood at 0.49 and the X = 470 turned out to be 0.399.

B13: 2M24A.1.17 (Fab, V domains shown)
VH: QVQLVQSGAEVKKPGASVKVSCKSSGYTFTDYYIHWVRQAPGQGLEWMGWINPNSGDTNYAQKFQGRITMTRDTSISTAYLELSRLRSDDTAVFYCARNSASYSFGYWGQGTLVTVSS
VL: DIQMTQSPSSVSASVGDRVTITCRASQGISSWLAWYQQKPGKAPKLLIFGASSLQSGVPSRFSGSGSGTDFTLTVSSLQPEDFATYYCQQAYSFPFTFGPGTKVDIE
For the molecule B13, the delta in assay [1] turned out to be 1%. In addition, in assay [2], the X = 290 was determined as 0.131 and the X = 350 came to 0.129.

B14: 2M24A.1.9 hFab (Fab, V domains shown)
VH: QVQLVQSGAEVKKPGASVKVSCKSSGYTFTDYYIHWVRQAPGQGLEWMGWINPNSGDTNYAQKFQGRITMTRDTSISTAYLELSRLRSDDTAVFYCARNSGSASFGYWGQGTLVTVSS
VL: DIQMTQSPSSVSASVGDRVTITCRASQGISSWLAWYQQKPGKAPKLLIFGASSLQSGVPSRFSGSGSGTDFTLTVSSLQPEDFATYYCQQAFSFPFTFGPGTKVDIE
On to B14, for which the delta in assay [1] was determined as 100%. In assay [2], the X = 340 came out at 0.018 and the X = 470 came to 0.

B15: 2M24A.1.3 hFab (Fab, V domains shown)
VH: QVQLVQSGAEVKKPGASVKVSCKSSGYTFTDYYIHWVRQAPGQGLEWMGWINPNSGDTNYAQKFQGRITMTRDTSISTAYLELSRLRSDDTAVFYCARASGSYSFGYWGQGTLVTVSS
VL: DIQMTQSPSSVSASVGDRVTITCRASQGISSWLAWYQQKPGKAPKLLIFGASSLQSGVPSRFSGSGSGTDFTLTVSSLQPEDFATYYCQQAASFPFTFGPGTKVDIE
Consider B15, for which, in assay [2], the X = 340 came to 0 and the X = 470 turned out to be 0.

B16: 2M24A.1.4 hFab (Fab, V domains shown)
VH: QVQLVQSGAEVKKPGASVKVSCKSSGYTFTDYYIHWVRQAPGQGLEWMGWINPNSGDTNYAQKFQGRITMTRDTSISTAYLELSRLRSDDTAVFYCARNSGSASFGYWGQGTLVTVSS
VL: DIQMTQSPSSVSASVGDRVTITCRASQGISSWLAWYQQKPGKAPKLLIFGASSLQSGVPSRFSGSGSGTDFTLTVSSLQPEDFATYYCQQAASFPFTFGPGTKVDIE
Take B16: in assay [2], the X = 340 amounted to 0 and the X = 470 was determined as 0.

B17: 2M24A.1.6 hFab (Fab, V domains shown)
VH: QVQLVQSGAEVKKPGASVKVSCKSSGYTFTAYYIHWVRQAPGQGLEWMGWINPNSGDTNYAQKFQGRITMTRDTSISTAYLELSRLRSDDTAVFYCARNSGSYSFGYWGQGTLVTVSS
VL: DIQMTQSPSSVSASVGDRVTITCRASQGISSWLAWYQQKPGKAPKLLIFGASSLQSGVPSRFSGSGSGTDFTLTVSSLQPEDFATYYCQQAFSFPFTFGPGTKVDIE
Turning to B17, the delta in assay [1] was 21%. Moreover, in assay [2], the X = 340 came out at 0.493 and the X = 470 was 0.39.

B18: 2M24A.1.19 (Fab, V domains shown)
VH: QVQLVQSGAEVKKPGASVKVSCKSSGYTFTDYYIHWVRQAPGQGLEWMGWINPNSGDTNYAQKFQGRITMTRDTSISTAYLELSRLRSDDTAVFYCARNSGSYAFGYWGQGTLVTVSS
VL: DIQMTQSPSSVSASVGDRVTITCRASQGISSWLAWYQQKPGKAPKLLIFGASSLQSGVPSRFSGSGSGTDFTLTVSSLQPEDFATYYCQQAYSFPFTFGPGTKVDIE
For the molecule B18, the delta in assay [1] is 22%. For the same molecule, in assay [2], the X = 290 was determined as 0.126 and the X = 350 came out at 0.0983.
